PMC6005513

Key:
[1] = biological target: WMHBV myr-preS1-Al633-peptide; experiment: Al633 fluorescence of labelled myr-preS1-peptide bound to transfected HEK293 cells; details: 10 nM peptide, 20 min, 37°C, read off a plot
[2] = biological target: HBV myr-preS1-Al633-peptide (UniProt P03138); experiment: as above; details: 10 nM peptide, 20 min, 37°C, read off a plot

Substance: Callithrix jacchus (common marmoset) Ntcp, wild type (from UniProt F7HA36) G158R
- response ([1]; parent: est. 20000): 11000 rfu

Substance: Callithrix jacchus (common marmoset) Ntcp, wild type (from UniProt F7HA36) G158S
- response ([1]; parent: est. 20000): 14000 rfu

Substance: Chlorocebus aethiops (grivet) Ntcp, wild type (from UniProt A0A0U3VGV8) R158G
- response ([1]; parent: est. 11000): 20000 rfu

Substance: Macaca fascicularis (crab-eating macaque) Ntcp, wild type R158G
- response ([2]; parent: est. 11000): 25000 rfu
- response ([1]; parent: est. 11000): 18000 rfu

Substance: Macaca mulatta (rhesus macaque) Ntcp, wild type (from UniProt A0A0U4DKK4) R158G
- response ([1]; parent: est. 11000): 20000 rfu

Substance: Saguinus oedipus (cotton-top tamarin) Ntcp, wild type (from UniProt A0A0U4EKU3) S158G
- response ([1]; parent: est. 11000): 15000 rfu

Substance: Saimiri sciureus (common squirrel monkey) Ntcp, wild type G158R
- response ([2]; parent: est. 18000): 10000 rfu
- response ([1]; parent: est. 18000): 11000 rfu

Substance: Saimiri sciureus (common squirrel monkey) Ntcp, wild type G158S
- response ([2]; parent: est. 18000): 11000 rfu
- response ([1]; parent: est. 18000): 10000 rfu

Substance: Semnopithecus sp. (langur) Ntcp, wild type R158G
- response ([2]; parent: est. 11000): 28000 rfu
- response ([1]; parent: est. 10000): 21000 rfu

Substance: human Na+/taurocholate co-transporting polypeptide (NTCP), wild type (from UniProt Q14973) G158D
- response ([1]; parent: est. 24000): 12000 rfu

Substance: human Na+/taurocholate co-transporting polypeptide (NTCP), wild type (from UniProt Q14973) G158N
- response ([1]; parent: est. 24000): 12000 rfu

Substance: human Na+/taurocholate co-transporting polypeptide (NTCP), wild type (from UniProt Q14973) G158R
- response ([1]; parent: est. 24000): 11000 rfu

Substance: human Na+/taurocholate co-transporting polypeptide (NTCP), wild type (from UniProt Q14973) G158S
- response ([1]; parent: est. 24000): 19000 rfu

Substance: human Na+/taurocholate co-transporting polypeptide (NTCP), wild type (from UniProt Q14973) G158V
- response ([1]; parent: est. 24000): 10000 rfu
